The data set has as its target APE1 wild type (human) (UniProt P27695). Briefly: EMSA. The following applies: 1 mM EDTA (no catalysis); apparent KD; N at position 16 of strand 1 = abasic ribonucleotide analog (tetrahydrofuran with 2'-OH); EMSA: 2 nM DNA, 0-20 nM APE1, 50 mM Tris pH 8, 1 mM EDTA, 0.2 mg/ml BSA, 1 mM DTT, 5% sucrose, 30 min on ice, 10% native gel. (Mobility shift assays separate free from complexed probe on a gel.)

Consider 1 sequence from PMC8207216.

Sequence of UniProt P27695 (P27695 whole entry): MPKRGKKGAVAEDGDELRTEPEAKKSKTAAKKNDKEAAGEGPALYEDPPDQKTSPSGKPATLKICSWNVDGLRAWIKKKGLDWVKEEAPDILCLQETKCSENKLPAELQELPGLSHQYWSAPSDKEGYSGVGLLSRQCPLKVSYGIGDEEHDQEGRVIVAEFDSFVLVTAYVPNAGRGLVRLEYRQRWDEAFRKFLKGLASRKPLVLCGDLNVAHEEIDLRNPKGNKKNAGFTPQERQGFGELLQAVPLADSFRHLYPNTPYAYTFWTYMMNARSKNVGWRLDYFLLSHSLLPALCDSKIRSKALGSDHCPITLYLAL

In the case of “CGTTCGCTGATGCGCNCGACGGATCCGCAT / ATGCGGATCCGTCGAGCGCATCAGCGAACG [30-mer rAP DNA]”, the Kd was found to be 2.9 nM.
